The target of assay [1] is recombinant human S100A6 (Abnova) (human, UniProt P06703 1-90). Put plainly: ELISA on purified protein; legend: - no reaction. (In general: In an ELISA, binding on a coated surface is turned into a signal by an enzyme label.)
Assay [2] addresses T1, recombinant human S100A7 (human, UniProt P31151 1-101).
T1 sequence (looked up): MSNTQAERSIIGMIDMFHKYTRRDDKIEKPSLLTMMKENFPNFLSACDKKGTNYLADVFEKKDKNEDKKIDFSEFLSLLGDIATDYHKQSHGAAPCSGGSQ
Nature of the assay: ELISA on purified protein; legend: - no reaction.

Assay [3] concerns the target T2, recombinant human S100A1 (Abnova) (human, UniProt P23297 1-94).
T2 sequence (looked up): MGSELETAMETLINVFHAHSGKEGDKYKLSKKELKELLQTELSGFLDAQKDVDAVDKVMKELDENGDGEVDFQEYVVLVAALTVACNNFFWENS
Nature of the assay: ELISA on purified protein; legend: - no reaction.

Assay [4] has as its target recombinant human S100A2 (Abnova) (human, UniProt P29034 1-98). Nature of the assay: ELISA on purified protein; legend: - no reaction.
Assay [5] has as its target T3, recombinant murine S100A4 (murine, UniProt P07091 1-101).
T3 construct: also called Mouse S100A4
Put plainly: ELISA on purified protein; legend: ++++ positive reaction.

recombinant human S100A2 (Abnova), sequence (P29034 whole entry, one chain of several): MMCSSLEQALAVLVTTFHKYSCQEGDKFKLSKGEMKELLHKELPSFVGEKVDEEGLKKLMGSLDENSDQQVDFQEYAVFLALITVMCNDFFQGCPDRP
T3 sequence (P07091 whole entry, one chain of several): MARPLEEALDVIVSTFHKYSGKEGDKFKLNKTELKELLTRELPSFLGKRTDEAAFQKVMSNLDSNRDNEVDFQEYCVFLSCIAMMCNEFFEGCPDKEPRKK

B1: monoclonal antibody 5C3 (hybridoma 5C3-1B8-1F4, ECACC 10022401) (antibody, IgG1, V domains shown)
VH: EAQLQQSGAELVKPGASVKLSCTASGFNIQETYMHWVKQRPEQGLEWIGRIDPANGNTKDDPKFQGKASITVDTSSNTAYLQLSSLTSEDTAVYYCASSYAMDYWGQGTSVTVSS
VL: DVLMTQTPLSLPVSLGDQASISCRSSQSIVHSNGNTYLEWYLQKTGQSPELLIYKVSNRLSGVPDRFSGSGSGTDFTLKISRVEAEDLGVYYCFQGSHVPFTFGSGTKLEIK
notes: constant regions are not; also called monoclonal mouse anti-human S100A4 5C3
B1: the binding result is “no binding” in assay [1]; “no binding” in assay [2]; “no binding” in assay [3]; “no binding” in assay [4]; “binds” in assay [5].
